Assay results as given in IntAct's records for PubMed 21664272.

These substances were tested against T1, rasa1_human RASA1 (UniProt P20936).
T1 sequence: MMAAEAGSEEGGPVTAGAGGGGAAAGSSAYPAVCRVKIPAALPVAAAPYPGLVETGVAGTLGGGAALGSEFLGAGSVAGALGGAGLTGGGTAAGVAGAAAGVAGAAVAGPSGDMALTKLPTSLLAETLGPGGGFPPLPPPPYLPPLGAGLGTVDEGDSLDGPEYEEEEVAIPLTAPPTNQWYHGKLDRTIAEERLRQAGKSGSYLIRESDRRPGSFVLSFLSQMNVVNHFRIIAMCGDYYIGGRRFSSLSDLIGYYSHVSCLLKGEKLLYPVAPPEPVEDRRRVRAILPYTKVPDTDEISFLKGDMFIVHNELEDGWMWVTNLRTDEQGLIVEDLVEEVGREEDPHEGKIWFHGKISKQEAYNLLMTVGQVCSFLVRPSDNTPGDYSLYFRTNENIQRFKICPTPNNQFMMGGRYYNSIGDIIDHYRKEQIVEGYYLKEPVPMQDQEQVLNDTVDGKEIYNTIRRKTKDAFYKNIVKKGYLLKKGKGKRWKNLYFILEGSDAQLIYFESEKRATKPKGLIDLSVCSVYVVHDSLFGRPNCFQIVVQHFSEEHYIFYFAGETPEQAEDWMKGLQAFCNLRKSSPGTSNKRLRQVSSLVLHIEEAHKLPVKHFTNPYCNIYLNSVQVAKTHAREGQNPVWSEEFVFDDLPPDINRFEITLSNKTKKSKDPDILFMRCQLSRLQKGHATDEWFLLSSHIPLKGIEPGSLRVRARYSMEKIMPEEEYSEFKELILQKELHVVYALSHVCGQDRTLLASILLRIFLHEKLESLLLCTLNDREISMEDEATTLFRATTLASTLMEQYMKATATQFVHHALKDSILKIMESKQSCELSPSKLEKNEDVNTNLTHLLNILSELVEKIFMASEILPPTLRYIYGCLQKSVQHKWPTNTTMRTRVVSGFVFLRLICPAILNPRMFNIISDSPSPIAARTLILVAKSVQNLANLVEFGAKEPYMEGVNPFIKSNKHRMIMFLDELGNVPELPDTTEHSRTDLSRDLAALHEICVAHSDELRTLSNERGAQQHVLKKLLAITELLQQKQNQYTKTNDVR

| Substance | effect of a mutation on the interaction |
| --- | --- |
| SH2/SH3 adapter protein NCK1 (Homo sapiens) (from UniProt P16333) W38K;W39K;W143K;W229K | decreasing interaction |
| SH2/SH3 adapter protein NCK1 (Homo sapiens) (from UniProt P16333) W143K;W229K;R308K | decreasing interaction |
| SH2/SH3 adapter protein NCK1 (Homo sapiens) (from UniProt P16333) W38K | decreasing interaction |
| SH2/SH3 adapter protein NCK1 (Homo sapiens) (from UniProt P16333) W38K;W143K;W229K;R308K | decreasing interaction |
| SH2/SH3 adapter protein NCK1 (Homo sapiens) (from UniProt P16333) W38K;W229K;R308K | disrupting interaction |
| SH2/SH3 adapter protein NCK1 (Homo sapiens) (from UniProt P16333) W229K | decreasing interaction |
